The values that follow come from patent publication US20160143256A1.

The target in the assay is mouse Mc4r (melanocortin 4 receptor), untagged expression construct (mouse) (UniProt P56450). Description: cell-based or functional assay.
UniProt P56450, sequence (P56450 whole entry): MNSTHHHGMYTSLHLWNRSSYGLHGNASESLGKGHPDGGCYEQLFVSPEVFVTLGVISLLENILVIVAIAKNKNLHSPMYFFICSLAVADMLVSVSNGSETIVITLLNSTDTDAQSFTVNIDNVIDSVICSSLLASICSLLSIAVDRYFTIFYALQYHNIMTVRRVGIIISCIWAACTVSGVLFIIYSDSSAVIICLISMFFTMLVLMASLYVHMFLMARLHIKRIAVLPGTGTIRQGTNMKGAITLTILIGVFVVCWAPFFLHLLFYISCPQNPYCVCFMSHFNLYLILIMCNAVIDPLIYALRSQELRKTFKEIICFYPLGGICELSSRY

Take “α-melanocyte stimulating hormone (from UniProt P01189 138-150) (peptide)”: the αMSH-induced increase above basal PKA activity (CRELuc, CHO cells transfected with Mc4r alone) was below 2 fold.
As for “Mrap2delE3 (mouse Mrap2 with exon 3 deleted) (from UniProt D3Z1Q2 1-55)”, the αMSH-induced increase above basal PKA activity (CRELuc, CHO cells co-transfected with Mc4r and Mrap2delE3) was below 2 fold.
“mouse Mrap2 (melanocortin 2 receptor accessory protein 2), untagged expression construct (from UniProt D3Z1Q2 1-207)” yielded a αMSH-induced increase above basal PKA activity (CRELuc, CHO cells co-transfected with Mc4r and Mrap2, 0-10 nM αMSH) of 5 fold.
